Data taken from the nanobody polyreactivity screen of Harvey et al. (2022).

Assay: yeast display, Sf9 membrane polyspecificity reagent, FACS + sequencing; frameworks hold sequencing errors
Outline: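 Nanobodies from a synthetic yeast display library (Saccharomyces cerevisiae BJ5465), induced 36–48 hours with galactose, were stained 1 hour at 4 °C with 10% biotinylated, detergent-solubilized Sf9 membrane reagent, enriched on streptavidin microbeads, then FACS-sorted. Anti-HA (expression) and streptavidin (reagent binding) fluorescence set low and high (top ~1%) gates. Polyreactivity labels come from the gate of origin. Genes were colony-PCR amplified, MiSeq 2 × 250 sequenced and filtered by CDR length.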

Row | Sequence | polyreactivity (PSR sort gate)
1 | QVQLVESGGGLVQAGGGLRLSCAACGSIFVYYVMGWYRQAPGKERELVAAINSDGDGTYYADSVKGRFTISRDNAKNTVYLQMNSLKPEDTAVYYCNALNPKSYDYWGQGTQVTVSS | low polyreactivity
2 | QVQLVESGGGLVQAGGSLRLSSAASAGIFAPNAMGLYRQAPGTEREFVAAISTGGGSTRYADSVKGRFTISRDNAKNTVYLQMNSLKPEDTAVYYCAATRVGVRRMDYWGQGTQVTVSS | low polyreactivity
3 | QVQLVESGGGLVQAGGSLRLSCAASGFIFYDYSMAWYRQAPGKEREFVAAISWSGGRTYYADSVKGRFTISRDNAKNTVYLQMNSLKPVDTAVYYCAVDAYRYWWTTYVSDFDYWGQGTQVTVSS | high polyreactivity
4 | QVQLVESAGGLVQAGGSLRLSCAASGIIFTPNPMGWYRQAPGKEREFVAAINYGGDTTYYADSVKGRFTISRNNAKNTVYLQMNRLKPEDTAVYYCATDGTTPTPRDAFVRFDHWGQGTQVTVSS | low polyreactivity
5 | QVQLVESGGGLVQAGGSLRLSCAASGRIFPYKAMGWYRPAPGKERELVAAITSSGGSTYYADSVKGRFTISRDNAKNTVYLQMNSLKPEDTAVYYCNKDIERYVRIYDSWGQGTQVTVSS | low polyreactivity
6 | QVQLVESGGGLVQAGGSLRLSCAASGFTFDHYAMGWCRQAPGKERELVAAITSSGGRTYYADSVKGRFTISRDNAKNTVYLQMNSLKPEDTAVYYCNARPVYYSGYGYWGQGTQVTVSS | high polyreactivity
7 | QVQLVESGGGLVQAGGSLRLSSAASGLIFSVYAMGWYRQAPGKERELVAAISSRGGTTYYADSVKGRFTISRDNAKNTVYLQMNSLKPEDTAVYYCAARSWSYTYDYWGQGTQVTVSS | high polyreactivity
8 | QVQLVESGGGLVQAGGSLRLSCAASGRIFQSNAMGWNIQAPGKERELVAASNSGDSTYYADSVKGRFTISRDNAINTVYLQMNSLQPEDTAVYYSAADAVYQYYSYYYWGQGTQVTVSS | low polyreactivity
9 | QVQIVESGGGLFQAGGSLRLICAASGRIFGNYSMGSSRQEPGKEREFVAAIDWSGGTTYYADSVKGPFTISRDNAKNTVYLQMNSLKPEDTEVYYCAAKYVYSVGNYRYDYWGQGTEVTVSS | low polyreactivity
10 | QVQLVESGGGLVQAGGSIRLSCAASRFTFGPYAMGWYRQAHVKERELVAAITIRGGSPYADSVKGRFTISRDNAKNTVYLQMNSLKPEDTAVYYCATVRALEYNYWGQGTQVTVSS | low polyreactivity
11 | QVQLVESVGGLVQAGGSLRLSCAASGNTFYVNVMGWYRQAPGKEREFVAAITWIGGSTYYADSVKGRFTISRDNAKNTVYLQMNSLKPEDTAVYYCAADVYNRWWWRAYDYWGQGTQVTVSS | high polyreactivity
12 | QVQLVESGGGLVQAGGSLRLSCAASGITFRHNAMGWYRQAPGKERELVAAISRRTYYSDSVKGRFTISRDNAKNTVYLQMNSLKPEDTAVYYCAKDVDYVSDSPYDYWGQGTQVTVSS | low polyreactivity
13 | QVQLVESGGGLVQAGGSLRLSCAASGSTFEPYAMGCYRQAPGKERELVAAISWSGGSTYYADSVKGRFTISRDNAKNTVDLQMNSLKPEDTAVYYCAAESGVPYYLPVVIYYYWGQGTQVTVSS | high polyreactivity
14 | QVQLVESGGGLVQAGGSLRLSCAASGIIFGFYAMGWYRQAPGKERELVAAITNDGGITNYADSVKGRFTISRDNAMNTVYLQMNSLKPEDTAVYYCAKDQWPWVRDSLYTLRYDYWGQGTQVTVSS | low polyreactivity
15 | QVQLVESGGGLVQAGGSLRLSCAASGITFYIYAMGWYRQAPGKERELVAAISDDGSTHYADSVKGRFTISRDNAKNTVYLHMNSLKPEDTAVYYCNADYYWFFDFFDYDYWGQGTQVTVSS | low polyreactivity
16 | QVQLVESGGGLVQAGGSLRLSCAASGSTLFTYAMGWYRQAPGKERELVAAITSSGSTYYADSVKGRFTISRDNAKNTVYFQMNSLKPEDTAVYYCAVPGYRYTKYYYWGQGTQVTVSS | low polyreactivity
17 | QVQLVESGGGLVQSGGSLRLSCAASGSTFVWYAMGWYRQAPGKERELVAAITDSGDDTYYADSVKGRFTISRDNAKNTVYLQMNSLKAEDNAVYYCAVVAWSVPPYDYWGQGTQVTVSS | low polyreactivity
